We go through five substances from patent publication US20100209956A1.

Assay in all cases: cell-based or functional assay
Test [1] concerns the target Met receptor on A549 lung carcinoma cells (UniProt P08581).
Test [2] has as its target pro-HGF (single-chain hepatocyte growth factor) (UniProt P14210).
Test [3] addresses soluble form of hepsin encompassing the entire extracellular domain (Arg45-Leu417) and a C-terminal His8 tag (human) (UniProt P05981).

Chain of pro-HGF (single-chain hepatocyte growth factor) (P14210 32-728 limits assumed): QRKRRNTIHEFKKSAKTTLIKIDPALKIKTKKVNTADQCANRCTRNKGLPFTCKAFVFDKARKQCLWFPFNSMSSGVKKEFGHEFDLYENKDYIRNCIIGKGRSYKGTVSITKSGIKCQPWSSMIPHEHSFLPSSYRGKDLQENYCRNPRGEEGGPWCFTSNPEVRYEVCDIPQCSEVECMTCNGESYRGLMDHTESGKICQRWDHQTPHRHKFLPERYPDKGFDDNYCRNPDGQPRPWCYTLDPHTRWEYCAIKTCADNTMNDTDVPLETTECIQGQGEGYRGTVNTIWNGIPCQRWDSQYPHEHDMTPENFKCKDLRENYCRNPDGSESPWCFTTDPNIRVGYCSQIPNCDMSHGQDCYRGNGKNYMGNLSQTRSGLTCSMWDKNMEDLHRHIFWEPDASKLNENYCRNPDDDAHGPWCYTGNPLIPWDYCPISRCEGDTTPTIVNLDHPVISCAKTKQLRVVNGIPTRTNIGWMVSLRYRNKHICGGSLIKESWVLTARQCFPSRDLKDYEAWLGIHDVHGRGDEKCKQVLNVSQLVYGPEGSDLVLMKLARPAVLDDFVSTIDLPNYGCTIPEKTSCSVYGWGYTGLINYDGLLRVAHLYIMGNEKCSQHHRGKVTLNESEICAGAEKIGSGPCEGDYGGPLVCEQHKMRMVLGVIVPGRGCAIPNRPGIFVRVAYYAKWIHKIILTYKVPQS
Chain of Met receptor on A549 lung carcinoma cells (P08581 25-1390 limits assumed): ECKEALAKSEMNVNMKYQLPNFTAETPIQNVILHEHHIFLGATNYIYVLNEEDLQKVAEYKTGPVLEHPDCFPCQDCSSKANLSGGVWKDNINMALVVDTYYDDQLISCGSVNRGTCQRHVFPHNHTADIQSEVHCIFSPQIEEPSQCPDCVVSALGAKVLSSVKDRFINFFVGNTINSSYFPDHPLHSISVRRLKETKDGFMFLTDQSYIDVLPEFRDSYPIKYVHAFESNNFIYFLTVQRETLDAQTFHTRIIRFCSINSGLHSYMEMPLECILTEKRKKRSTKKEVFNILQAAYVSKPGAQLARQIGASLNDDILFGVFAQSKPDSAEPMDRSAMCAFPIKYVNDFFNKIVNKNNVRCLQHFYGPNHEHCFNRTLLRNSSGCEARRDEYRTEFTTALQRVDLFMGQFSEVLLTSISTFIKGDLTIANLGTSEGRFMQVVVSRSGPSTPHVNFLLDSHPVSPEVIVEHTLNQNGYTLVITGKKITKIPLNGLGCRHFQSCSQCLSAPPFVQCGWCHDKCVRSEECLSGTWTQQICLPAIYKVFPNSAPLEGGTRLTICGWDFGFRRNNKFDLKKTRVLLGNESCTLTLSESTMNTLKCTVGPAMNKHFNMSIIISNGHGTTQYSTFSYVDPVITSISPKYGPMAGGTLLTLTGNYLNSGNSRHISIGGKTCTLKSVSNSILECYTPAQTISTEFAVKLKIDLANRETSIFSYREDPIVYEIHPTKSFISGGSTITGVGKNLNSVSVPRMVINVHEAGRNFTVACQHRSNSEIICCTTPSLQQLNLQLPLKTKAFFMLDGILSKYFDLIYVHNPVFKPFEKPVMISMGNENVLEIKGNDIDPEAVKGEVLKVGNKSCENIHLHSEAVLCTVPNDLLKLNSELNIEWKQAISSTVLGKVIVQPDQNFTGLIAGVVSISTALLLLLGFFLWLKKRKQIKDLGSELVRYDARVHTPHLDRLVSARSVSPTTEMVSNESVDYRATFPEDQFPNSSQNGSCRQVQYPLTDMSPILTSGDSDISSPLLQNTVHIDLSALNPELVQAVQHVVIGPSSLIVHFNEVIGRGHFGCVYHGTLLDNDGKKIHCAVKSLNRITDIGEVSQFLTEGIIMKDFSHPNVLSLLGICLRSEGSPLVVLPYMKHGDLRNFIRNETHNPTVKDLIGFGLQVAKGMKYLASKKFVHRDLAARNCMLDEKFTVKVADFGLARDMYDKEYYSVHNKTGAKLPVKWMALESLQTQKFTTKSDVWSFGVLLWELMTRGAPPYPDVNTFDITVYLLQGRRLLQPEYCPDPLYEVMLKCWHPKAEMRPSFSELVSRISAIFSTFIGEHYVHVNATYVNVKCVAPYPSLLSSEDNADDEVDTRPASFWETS
Chain of soluble form of hepsin encompassing the entire extracellular domain (Arg45-Leu417) and a C-terminal His8 tag (human) (P05981 45-162 limits assumed, chain 1 of 2): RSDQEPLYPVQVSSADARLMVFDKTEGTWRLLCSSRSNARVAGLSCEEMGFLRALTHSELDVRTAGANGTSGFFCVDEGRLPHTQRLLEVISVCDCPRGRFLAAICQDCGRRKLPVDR
Chain of soluble form of hepsin encompassing the entire extracellular domain (Arg45-Leu417) and a C-terminal His8 tag (human) (P05981 other isoform, or with tags, fused parts or gaps limits assumed, chain 2 of 2): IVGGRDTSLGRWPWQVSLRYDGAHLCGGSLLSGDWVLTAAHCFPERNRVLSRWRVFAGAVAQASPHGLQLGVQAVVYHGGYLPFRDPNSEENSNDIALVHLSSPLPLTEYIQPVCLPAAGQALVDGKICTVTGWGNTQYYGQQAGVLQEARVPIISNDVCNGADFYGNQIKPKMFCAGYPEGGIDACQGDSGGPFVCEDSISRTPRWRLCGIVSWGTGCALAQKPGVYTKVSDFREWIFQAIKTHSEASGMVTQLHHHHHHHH

On to “HGFHGFA (HGF produced by activation of pro-HGF with HGFA) (from UniProt P14210 32-728; P14210 32-728) (ligand)”, for which the Met phosphorylation in a kinase receptor assay (KIRA) with A549 cells: concentration of maximal activity in test [1] was determined as 250 ng/mL.
In test [2], “soluble form of hepsin encompassing the entire extracellular domain (Arg45-Leu417) and a C-terminal His8 tag (from UniProt P05981 45-162; P05981 163-417) (enzyme)” came in with a percent of unlabelled pro-HGF (0.3 mg/ml) converted into HGF by 40 nM enzyme greater than 95%.
In turn, “HGFhepsin (HGF produced by activation of pro-HGF with hepsin) (from UniProt P14210 32-728; P14210 32-728) (ligand)” registered a Met phosphorylation in a kinase receptor assay (KIRA) with A549 cells: concentration of maximal activity in test [1] of 250 ng/mL.
In test [2], “HGFA (hepatocyte growth factor activator) comprising residues Val373-Arg407 (from UniProt Q04756 373-407) (enzyme)” registered a percent of unlabelled pro-HGF (0.3 mg/ml) converted into HGF by 40 nM enzyme greater than 95%.
Turning to “soluble form of HAI-1B (sHAI-1B) comprising the entire extracellular domain (from UniProt O43278 36-465)”, the IC50, inhibition of hepsin enzymatic activity towards S2366 (amidolytic assay) in test [3] is 21.1 nM.
